Laboratory results taken from PMC8184817, “Transmission of light signals from the light-oxygen-voltage core via the hydrophobic region of the β-sheet surface in aureochrome-1” (Scientific Reports, 2021).

B1: Photozipper (PZ), N-terminally truncated aureochrome-1 of Vaucheria frigida, wild type [Vaucheria frigida] / itself (parent)
chain: GSISSELTEAQKVERRERNREHAKRSRVRKKFLLESLQQSVNELNHENNSLKESIREHLGPRGDSLIAQSSPEADTLLTDNPSKANRILEDPDYSLVKALQMAQQNFVITDASLPDNPIVYASRGFLTLTGYSLDQILGRNCRFLQGPETDPRAVDKIRNAITKGVDTSVCLLNYRQDGTTFWNLFFVAGLRDSKGNIVNYVGVQSKVSEDYAKLLVNEQNIEYKGVRTSNMLRRK

Variants of: B1
Assay: DLS
Conditions: with itself

| Variant | hydrodynamic size (D (dark) state) | hydrodynamic size (L (light) state) |
| --- | --- | --- |
| GSISSELTEAQKVERRERNREHAKRSRVRKKFLLESLQQSVNELNHENNSLKESIREHLGPRGDSLIAQSSPEADTLLTDNPSKANRIAEDPDYSAVKAAQMAQQNFVITDASLPDNPIVYASRGFLTLTGYSLDQILGRNCRFLQGPETDPRAVDKIRNAITKGVDTSVCLLNYRQDGTTFWNLFFVAGLRDSKGNIVNYVGVQSKVSEDYAKLLVNEQNIEYKGVRTSNMLRRK [chain 1 L89A L96A L100A] | 3.05 nm | 3.86 nm |
| GSISSELTEAQKVERRERNREHAKRSRVRKKFLLESLQQSVNELNHENNSLKESIREHLGPRGDSLIAQSSPEADTLLTDNPSKANRILEDPDYSLVKAAQMAQQNFVITDASLPDNPIVYASRGFLTLTGYSLDQILGRNCRFLQGPETDPRAVDKIRNAITKGVDTSVCLLNYRQDGTTFWNLFFVAGLRDSKGNIVNYVGVQSKVSEDYAKLLVNEQNIEYKGVRTSNMLRRK [chain 1 L100A] | 3.18 nm | 3.88 nm |
